For assay [1], the target named is HLA-A*0201 (human). The experiment in a line: competitive inhibition of 125I-labelled standard peptide binding to purified HLA, gel filtration; ratio = IC50 standard / IC50 test peptide.
Assay [2] addresses HLA-A*0202 (human). Described as above.
For assay [3], the target named is HLA-A*0203 (human). The assay is described as above.
The target of assay [4] is HLA-A*0206 (human). The assay is described as above.
For assay [5], the target named is HLA-A*0202 (human). As to the kind of experiment: competitive inhibition of 125I-labelled standard peptide binding to purified HLA, gel filtration. On the technique in general: Size exclusion chromatography separates by hydrodynamic size, large species first.
The target in assay [6] is HLA-A*0206 (human). The description is as above.
In assay [7] the target is HLA-A*6802 (human). The description is as above.
The target in assay [8] is HLA-A*0201 (human). As to the kind of experiment: competition binding to purified HLA, 125I-labelled standard peptide, gel filtration; ratio = IC50 standard / IC50 test peptide. The note with it: remark: other sources report otherwise.
The target of assay [9] is HLA-A*0202 (human). Described as above. The conditions noted are these: remark: other sources report otherwise.
Assay [10] concerns the target HLA-A*0203 (human). The description is as above. The conditions noted are these: remark: other sources report otherwise.
The target in assay [11] is HLA-A*0206 (human). The description is as above. The note with it: remark: other sources report otherwise.
The target of assay [12] is HLA-A*0201 (human). The experiment in a line: competition with 125I-labelled standard peptide 941.01 ([..]) for purified HLA-A*0201, gel filtration.
The target in assay [13] is HLA-A*0202 (human). The experiment in a line: competition with 125I-labelled standard peptide 941.01 ([..]) for purified HLA-A*0202, gel filtration.
In assay [14] the target is HLA-A*0203 (human). The experiment in a line: competition with 125I-labelled standard peptide 941.01 ([..]) for purified HLA-A*0203, gel filtration.
In assay [15] the target is HLA-A*0206 (human). As to the kind of experiment: competition with 125I-labelled standard peptide 941.01 ([..]) for purified HLA-A*0206, gel filtration.
Assay [16] has as its target HLA-A*6802 (human). The experiment in a line: competition with 125I-labelled standard peptide 1072.34 ([..]) for purified HLA-A*6802, gel filtration.
Assay [17] has as its target HLA-A*0201 (purified HLA class I molecule) (human). The experiment in a line: competition with 125I-labelled standard peptide for purified HLA, gel filtration.
In assay [18] the target is HLA-A*0202 (purified HLA class I molecule) (human). Described as above.
For assay [19], the target named is HLA-A*0203 (purified HLA class I molecule) (human). Described as above.
The target in assay [20] is HLA-A*0206 (purified HLA class I molecule) (human). The description is as above.
In assay [21] the target is HLA-A*0201 (human). As to the kind of experiment: competition with 125I-labelled standard peptide for purified HLA, gel filtration; ratio = IC50 standard / IC50 test peptide.
Assay [22] has as its target HLA-A*0202 (human). Described as above.
In assay [23] the target is HLA-A*0203 (human). Described as above.
Assay [24] addresses HLA-A*0206 (human). The description is as above.
Assay [25] has as its target HLA-A*6802 (human). Described as above.
The target of assay [26] is HLA-A*0101 molecule, purified from cell lysates (human). The experiment in a line: competition with 125I-labelled standard peptide for purified HLA-A*0101, gel filtration.
The target of the next assay is HLA-A*0101 (human). The experiment in a line: inhibition of 125I-labeled standard peptide 944.02 binding to purified HLA-A*0101, gel filtration.
For assay [27], the target named is HLA-A*0201 (human). The experiment in a line: competition for purified HLA with 125I-labelled standard peptide 941.01 [..] as competitor, gel filtration. The conditions noted are these: scale: ratio.
Assay [28] has as its target HLA-A*0202 (human). The description is as above. The conditions noted are these: scale: ratio.
The target in assay [29] is HLA-A*0203 (human). The assay is described as above. The conditions noted are these: scale: ratio.
Assay [30] has as its target HLA-A*6802 (human). The experiment in a line: competition for purified HLA with 125I-labelled standard peptide 1072.34 [..] as competitor, gel filtration. The conditions noted are these: scale: ratio.
The target of assay [31] is HLA-A*6802 (human). As to the kind of experiment: competitive inhibition of 125I-labelled standard peptide binding to purified HLA, gel filtration; ratio = IC50 standard / IC50 test peptide. The note with it: remark: other sources report otherwise.
The target in the next assay is HLA-A*1101 (human). The experiment in a line: competition with 125I-labelled standard peptide 940.06 ([..], IC50 […] nM) for purified HLA-A*1101; gel filtration.

On to VAVYSHGWA (modifications not checked) [… (Kallikrein, position 40)], for which the binding affinity ratio with HLA-A*0201 (human) [1] was -0.0001; with HLA-A*0202 (human) [2] it was -0.0001; with HLA-A*0203 (human) [3], 0.0002; in the assay with HLA-A*0206 (human) [4], 0.0002.
For KITDVVKV (modifications not checked) [KITDVVKV (Kallikrein, position 131)], the binding affinity ratio (ratio to standard peptide) with HLA-A*0202 (human) [5] is 0.0002; with HLA-A*0206 (human) [6] it was 0.0002; with HLA-A*6802 (human) [7], -0.0001.
On to DLPTQEPALGT (modifications not checked) [… (PSA, position 136, 11 amino acids)], for which the binding affinity ratio worked out at 0.0041 in the assay with HLA-A*0201 (human) [8], 0.018 with HLA-A*0202 (human) [9], 0.01 in the assay with HLA-A*0203 (human) [10] and 0.0001 with HLA-A*0206 (human) [11].
Regarding VASRGRAV (modifications not checked) [PSA peptide VASRGRAV (position 38, 8 amino acids)], the binding affinity ratio (IC50 of standard peptide / IC50 of test peptide) in the assay with HLA-A*0201 (human) [12], in the assay with HLA-A*0202 (human) [13], with HLA-A*0203 (human) [14], with HLA-A*0206 (human) [15] and with HLA-A*6802 (human) [16] was -0.0001 throughout.
Consider MLCAGRWT (modifications not checked) [PSA peptide MLCAGRWT (position 192, 8 amino acids)], for which the binding affinity ratio (IC50 of standard peptide / IC50 of test peptide) in assay [17] was 0.0006; in assay [18], 0.0012; in [19], 0.0033; in assay [20] it was -0.0001.
Consider QVHPQKVT (modifications not checked) [PSA peptide QVHPQKVT, position 182, 8 amino acids], for which the binding affinity ratio (ratio to standard peptide) with HLA-A*0201 (human) [21] was -0.0001; in the assay with HLA-A*0202 (human) [22], -0.0001; with HLA-A*0203 (human) [23], 0.0001; in the assay with HLA-A*0206 (human) [24], -0.0001; with HLA-A*6802 (human) [25] it was -0.0001.
With GMPEGDLVY (modifications not checked) [PSM peptide … (position 168, 9 amino acids)], the binding affinity ratio (IC50 of the standard peptide / IC50 of the test peptide) in assay [26] was determined as 0.0001.
PSLYTKVVHY (modifications not checked) [PSA 236 peptide …]: the binding affinity ratio (IC50 of the standard peptide / IC50 of the test peptide) in the assay with HLA-A*0101 (human) worked out at 0.001.
For GVLVHPQWVLT (modifications not checked) [… (Kallikrein position 52 / PSA position 48, 11-mer)], the binding affinity ratio with HLA-A*0201 (human) [27] was 0.0002; in the assay with HLA-A*0202 (human) [28], 0.0005; in the assay with HLA-A*0203 (human) [29] it was 0.0005; with HLA-A*6802 (human) [30] it was -0.0001.
For VLGLPTQEPA (modifications not checked) [… (Kallikrein, position 138)], the binding affinity ratio in the assay with HLA-A*0201 (human) [1] (remark: other sources report otherwise) was 0.0008; with HLA-A*6802 (human) [31], -0.0001.
As to PANEYAYRR (modifications not checked) [PSM.273 peptide …], the binding affinity ratio (IC50 of standard peptide / IC50 of test peptide) with HLA-A*1101 (human) came to 0.0002.

(Values after patent US20070020327A1.)
